Test results reported in PMC9788759.

Biological target: reconstituted 26S proteasome with LD555 donor dye on Rpn9 (F2AzF) and LD655 acceptor dye on Rpt5 (Q49AzF), wild type (yeast | not stated | yeast (endogenous gene tagged in strain W303) | yeast (endogenous in W303)) (UniProt P33299)
Sequence of UniProt P33299 (P33299 whole entry, looked up): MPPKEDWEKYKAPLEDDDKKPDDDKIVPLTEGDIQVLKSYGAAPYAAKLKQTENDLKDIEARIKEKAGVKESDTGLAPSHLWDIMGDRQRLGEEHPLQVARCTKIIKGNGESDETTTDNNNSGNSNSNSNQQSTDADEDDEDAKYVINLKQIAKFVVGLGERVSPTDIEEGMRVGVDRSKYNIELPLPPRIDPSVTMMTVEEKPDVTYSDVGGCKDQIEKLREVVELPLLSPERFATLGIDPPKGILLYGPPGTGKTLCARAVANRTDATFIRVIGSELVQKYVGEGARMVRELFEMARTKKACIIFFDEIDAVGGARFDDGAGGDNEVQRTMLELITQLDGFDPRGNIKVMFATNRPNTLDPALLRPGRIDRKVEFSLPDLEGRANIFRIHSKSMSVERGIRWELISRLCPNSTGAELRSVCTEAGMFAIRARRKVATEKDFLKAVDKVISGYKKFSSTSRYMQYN

## unanchored K48-linked ubiquitin tetramer (from UniProt P0CG63 1-76)
  rate of the s1-to-non-s1 transition (ks1) of the substrate-free proteasome in the single-molecule FRET conformational dynamics assay; 1.2 s^-1 without chains: 0.4 s⁻¹
